The test system of the data set is HMO1 (Saccharomyces cerevisiae). Description: optical tweezers (DNA stretching). The settings on record: Assay buffer, salt, pH and temperature not given in the material (protein stored in 20 mM HEPES pH 7.5, 100 mM KCl, 1 mM EDTA, 1 mM DTT, 5% glycerol).

Consider bacteriophage lambda DNA, for which the Kd worked out at 1.9 nM (from contour length, omega = 18 +/- 5, n = 26 bp); 2.8 nM (from overstretching force, omega = 80 +/- 15, n = 26 bp); 2.1 nM (from persistence length, omega = 20 +/- 7, n = 26 bp).

(Values after publication PMC4132745.)
